# From publication PMC11211324 (Cell Discovery, 2024)
# What was measured:
# purified KRAS [1] = biological target: T1, purified KRAS (Homo sapiens (assumed), isoform 2B …, UniProt P01116-2, biotin (chemically labelled with EZ-link-Sulfo-NHS-biotin) in the BLI assay only)
# purified KRAS [2] = biological target: T1, purified KRAS; test: BLI; biotinylated KRAS immobilised on streptavidin biosensors, KDCs (TKD, TKDm) in solution in a 2-fold dilution series; Octet Red96, 30 °C, PBST (1x PBS, 0.1% Tween 20); 100 s association, 200 s dissociation; 1:1 model, global fit; conditions: both partners purified
# purified HRAS = biological target: T2, purified HRAS (Homo sapiens (assumed), UniProt P01112); test: BLI; TKD with purified HRAS or NRAS; Octet Red96, 30 °C, PBST; which partner was on the biosensor is not clearly told; conditions: both partners purified
# T2 construct: HRAS, purified, bought; Catalogue numbers are printed in the order HRAS/NRAS; source: bought: MedChemExpress
# T2 sequence (P01112 whole entry): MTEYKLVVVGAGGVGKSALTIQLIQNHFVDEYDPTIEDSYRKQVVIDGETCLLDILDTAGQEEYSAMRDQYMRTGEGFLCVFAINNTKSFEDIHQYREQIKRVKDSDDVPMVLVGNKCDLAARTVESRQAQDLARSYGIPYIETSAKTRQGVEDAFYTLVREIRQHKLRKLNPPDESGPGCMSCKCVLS
# purified NRAS = biological target: T3, purified NRAS (Homo sapiens (assumed), UniProt P01111); test: as above; conditions: both partners purified
# T3 construct: NRAS, purified, bought; Catalogue numbers are printed in the order HRAS/NRAS; source: bought: MedChemExpress
# T3 sequence (P01111 whole entry): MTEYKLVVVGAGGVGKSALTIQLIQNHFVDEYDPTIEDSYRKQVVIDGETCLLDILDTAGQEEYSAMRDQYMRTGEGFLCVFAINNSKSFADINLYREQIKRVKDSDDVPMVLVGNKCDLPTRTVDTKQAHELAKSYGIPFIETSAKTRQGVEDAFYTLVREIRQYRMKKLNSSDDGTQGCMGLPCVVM
# T1 sequence (P01116 whole entry, canonical isoform): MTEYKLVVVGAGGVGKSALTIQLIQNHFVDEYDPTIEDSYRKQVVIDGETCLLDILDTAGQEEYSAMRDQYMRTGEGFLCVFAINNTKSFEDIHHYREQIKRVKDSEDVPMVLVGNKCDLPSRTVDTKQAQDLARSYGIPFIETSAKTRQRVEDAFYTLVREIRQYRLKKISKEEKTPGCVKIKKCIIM
Binder,binding result (purified KRAS [1]),other results
4 (VHH) VHH: DVQLQESGGGLVQPGGSLRLSCAASGFTFGNTGMSWVRQAPGKGLEWVSGISSGGAFSFYADSVKGRFTGSDNSAKNTVYLQMNSLQPEDTGVYYCAAGPRVALLTTPWTNPQSYHYWGQGTQVTVSS,binds,
2 (VHH) VHH: DVQLQESGGGLVQAGGSLRLSCVAPARTVSTYPTGWFRRAPGKEREFVARINFSGGITNYADSVKGRFTISRNNTKNTVYLQMNSLKPEDTAVYYCGGGSTTWADGIPINFDYWGQGTQVTVSS,binds,
"tumor-targeting KRAS degrader (TKD) (VHH, cancer cell-penetrating peptide BR2 (derived from buforin IIb); KRAS nanobody from an alpaca immunised with KRAS (1-169 aa); Fusion of BR2, KRAS nanobody and CTM; also called KDC 1; KRAS degrader candidate 1; source: for co-IP the purified protein was added to living cells) VHH: DVQLQESGGGLVQAGGSLRLSCVASGRTFSTYPTGWFRQAPGKEREFVARINLSGGITNYADSVKGRFTISRDNAKNTVYLQMNSLKPEDTAVYYCGGGSTTWAGGIPTNFDYWGQGTQVTVSS",,Kd (purified KRAS [2]): 6.57 nM; binding result (purified HRAS): no binding; binding result (purified NRAS): no binding
"TKDm (negative control of TKD with mutant CTM peptide) (VHH, cancer cell-penetrating peptide BR2 (derived from buforin IIb); KRAS nanobody, same as in TKD; also called TKDm-His; source: for co-IP the purified protein was added to living cells) VHH: DVQLQESGGGLVQAGGSLRLSCVASGRTFSTYPTGWFRQAPGKEREFVARINLSGGITNYADSVKGRFTISRDNAKNTVYLQMNSLKPEDTAVYYCGGGSTTWAGGIPTNFDYWGQGTQVTVSS",,Kd (purified KRAS [2]): 6.6 nM
5 (VHH) VHH: DVQLQESGGGLVQPGGSLRLNCAASGFVFSDYAMSWVRQAPGKGLEWVSAIYGGGYNPIYADSVKGRFTISRDNAKNTLYLQIRTLKPEDTGVYYCAKEQTFGTFLNDTYYSPSYYDWGQGTQVTVSS,binds,

# Continued, in another order:
binding result (purified KRAS [1]),Binder,other results
binds,3 (VHH) VHH: DVQLQESGGGLVQPGGSLRLNCAASGFVFSDYAMSWVRQAPGKGLEWVSAIYGGGYNPIYTDSVKGRFTISRDNAKNTLYLQIRTLKPEDTGVYYCAKEQTFGTFLNDTYYSPSYYDWGQGTQVTVSS,
binds,6 (VHH) VHH: DVQLQESGGGLVEPGGSLRLSCAASGSIFGLDVMGWYRQAPGKQRELVAIITRGGTANYADSGKGRFTISSDYAKKTVSLQMGSLIPEDTAVYYCSALVLGTNYWGQGTQVTVSS,
